B1: library; numbered along this chain (parent)
chain: MAAAAAAAAEQQSSNGPVKKSMREKAVERRSVNKEHNSNFKAGYIPIDEDRLHKTGLRGRKGNLAICVIILLFILAVINLIITLVIWAVIRIGPNGCDSMEFHESGLLRFKQVSDMGVIHPLYKSTVGGRRNENLVITGNNQPIVFQQGTTKLSVENNKTSITSDIGMQFFDPRTQNILFSTDYETHEFHLPSGVKSLNVQKASTERITSNATSDLNIKVDGRAIVRGNEGVFIMGKTIEFHMGGNMELKAENSIILNGSVMVSTTRLPSSSSGDQLGSGDWVRYKLCMCADGTLFKVQVTSQNMGCQISDNPCGNTH

Variants of: B1
Assay: SGCB cell-surface expression functional score (HA stain, bin4 vs bin1, normalised to synonymous) (log10 ratio); higher = more cell-surface SGCB (functional)
Summary of the method: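 The functional score is a log ratio of variant frequency in the highest versus the lowest intensity bin, expressed as a median over codons and duplicate transductions. Codon-saturation libraries of HA-tagged, YFP-fused human beta-sarcoglycan were transduced by lentivirus at MOI <0.1 into HEK293 cells stably expressing alpha-, gamma- and delta-sarcoglycan, and the cells were stained on ice with Alexa Fluor 647 anti-HA, fixed and sorted into four 5% intensity bins before amplicon sequencing. Synonymous variants were scaled to mean 0, SD 0.5 within each section.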

Variant	SGCB cell-surface expression functional score (log10)
MAAAAAAAAEQQSSNGPVKKSMREKAVERRSVNKEHNSNFKAGYIPIDEDRLHKTGLRGRKGNLAICVIILLFILAVINLIITLVIWAVIRIGPNGCDSMEFHESGLLRFKQVSDMGVIHPLYKSTVGGRRNENLVITGNNQPIVFQQGTTKLSVENNKTSITSDIGEQFFDPRTQNILFSTDYETHEFHLPSGVKSLNVQKASTERITSNATSDLNIKVDGRAIVRGNEGVFIMGKTIEFHMGGNMELKAENSIILNGSVMVSTTRLPSSSSGDQLGSGDWVRYKLCMCADGTLFKVQVTSQNMGCQISDNPCGNTH [M168E]	-0.66
MAAAAAAAAEQQSSNGPVKKSMREKAVERRSVNKEHNSNFKAGYIPIDEDRLHKTGLRGRKGNLAICVIILLFILAVINLIITLVIWAVIRIGPNGCDSMEFHESGLLRFKQVSDMGVIHPLYKSTVGGRRNENLVITGNNQPIVFQQGTTKLSVENNKTSITSDIGCQFFDPRTQNILFSTDYETHEFHLPSGVKSLNVQKASTERITSNATSDLNIKVDGRAIVRGNEGVFIMGKTIEFHMGGNMELKAENSIILNGSVMVSTTRLPSSSSGDQLGSGDWVRYKLCMCADGTLFKVQVTSQNMGCQISDNPCGNTH [M168C]	-0.84
MAAAAAAAAEQQSSNGPVKKSMREKAVERRSVNKEHNSNFKAGYIPIDEDRLHKTGLRGRKGNLAICVIILLFILAVINLIITLVIWAVIRIGPNGCDSMEFHESGLLRFKQVSDMGVIHPLYKSTVGGRRNENLVITGNNQPIVFQQGTTKLSVENNKTSITSDIGDQFFDPRTQNILFSTDYETHEFHLPSGVKSLNVQKASTERITSNATSDLNIKVDGRAIVRGNEGVFIMGKTIEFHMGGNMELKAENSIILNGSVMVSTTRLPSSSSGDQLGSGDWVRYKLCMCADGTLFKVQVTSQNMGCQISDNPCGNTH [M168D]	-1.62
MAAAAAAAAEQQSSNGPVKKSMREKAVERRSVNKEHNSNFKAGYIPIDEDRLHKTGLRGRKGNLAICVIILLFILAVINLIITLVIWAVIRIGPNGCDSMEFHESGLLRFKQVSDMGVIHPLYKSTVGGRRNENLVITGNNQPIVFQQGTTKLSVENNKTSITSDIGFQFFDPRTQNILFSTDYETHEFHLPSGVKSLNVQKASTERITSNATSDLNIKVDGRAIVRGNEGVFIMGKTIEFHMGGNMELKAENSIILNGSVMVSTTRLPSSSSGDQLGSGDWVRYKLCMCADGTLFKVQVTSQNMGCQISDNPCGNTH [M168F]	-0.59
MAAAAAAAAEQQSSNGPVKKSMREKAVERRSVNKEHNSNFKAGYIPIDEDRLHKTGLRGRKGNLAICVIILLFILAVINLIITLVIWAVIRIGPNGCDSMEFHESGLLRFKQVSDMGVIHPLYKSTVGGRRNENLVITGNNQPIVFQQGTTKLSVENNKTSITSDIGGQFFDPRTQNILFSTDYETHEFHLPSGVKSLNVQKASTERITSNATSDLNIKVDGRAIVRGNEGVFIMGKTIEFHMGGNMELKAENSIILNGSVMVSTTRLPSSSSGDQLGSGDWVRYKLCMCADGTLFKVQVTSQNMGCQISDNPCGNTH [M168G]	-1.9
MAAAAAAAAEQQSSNGPVKKSMREKAVERRSVNKEHNSNFKAGYIPIDEDRLHKTGLRGRKGNLAICVIILLFILAVINLIITLVIWAVIRIGPNGCDSMEFHESGLLRFKQVSDMGVIHPLYKSTVGGRRNENLVITGNNQPIVFQQGTTKLSVENNKTSITSDIGAQFFDPRTQNILFSTDYETHEFHLPSGVKSLNVQKASTERITSNATSDLNIKVDGRAIVRGNEGVFIMGKTIEFHMGGNMELKAENSIILNGSVMVSTTRLPSSSSGDQLGSGDWVRYKLCMCADGTLFKVQVTSQNMGCQISDNPCGNTH [M168A]	-1.55
MAAAAAAAAEQQSSNGPVKKSMREKAVERRSVNKEHNSNFKAGYIPIDEDRLHKTGLRGRKGNLAICVIILLFILAVINLIITLVIWAVIRIGPNGCDSMEFHESGLLRFKQVSDMGVIHPLYKSTVGGRRNENLVITGNNQPIVFQQGTTKLSVENNKTSITSDIPMQFFDPRTQNILFSTDYETHEFHLPSGVKSLNVQKASTERITSNATSDLNIKVDGRAIVRGNEGVFIMGKTIEFHMGGNMELKAENSIILNGSVMVSTTRLPSSSSGDQLGSGDWVRYKLCMCADGTLFKVQVTSQNMGCQISDNPCGNTH [G167P]	-1.01
MAAAAAAAAEQQSSNGPVKKSMREKAVERRSVNKEHNSNFKAGYIPIDEDRLHKTGLRGRKGNLAICVIILLFILAVINLIITLVIWAVIRIGPNGCDSMEFHESGLLRFKQVSDMGVIHPLYKSTVGGRRNENLVITGNNQPIVFQQGTTKLSVENNKTSITSDINMQFFDPRTQNILFSTDYETHEFHLPSGVKSLNVQKASTERITSNATSDLNIKVDGRAIVRGNEGVFIMGKTIEFHMGGNMELKAENSIILNGSVMVSTTRLPSSSSGDQLGSGDWVRYKLCMCADGTLFKVQVTSQNMGCQISDNPCGNTH [G167N]	-1.11
MAAAAAAAAEQQSSNGPVKKSMREKAVERRSVNKEHNSNFKAGYIPIDEDRLHKTGLRGRKGNLAICVIILLFILAVINLIITLVIWAVIRIGPNGCDSMEFHESGLLRFKQVSDMGVIHPLYKSTVGGRRNENLVITGNNQPIVFQQGTTKLSVENNKTSITSDILMQFFDPRTQNILFSTDYETHEFHLPSGVKSLNVQKASTERITSNATSDLNIKVDGRAIVRGNEGVFIMGKTIEFHMGGNMELKAENSIILNGSVMVSTTRLPSSSSGDQLGSGDWVRYKLCMCADGTLFKVQVTSQNMGCQISDNPCGNTH [G167L]	-0.9
MAAAAAAAAEQQSSNGPVKKSMREKAVERRSVNKEHNSNFKAGYIPIDEDRLHKTGLRGRKGNLAICVIILLFILAVINLIITLVIWAVIRIGPNGCDSMEFHESGLLRFKQVSDMGVIHPLYKSTVGGRRNENLVITGNNQPIVFQQGTTKLSVENNKTSITSDIRMQFFDPRTQNILFSTDYETHEFHLPSGVKSLNVQKASTERITSNATSDLNIKVDGRAIVRGNEGVFIMGKTIEFHMGGNMELKAENSIILNGSVMVSTTRLPSSSSGDQLGSGDWVRYKLCMCADGTLFKVQVTSQNMGCQISDNPCGNTH [G167R]	-1.14
MAAAAAAAAEQQSSNGPVKKSMREKAVERRSVNKEHNSNFKAGYIPIDEDRLHKTGLRGRKGNLAICVIILLFILAVINLIITLVIWAVIRIGPNGCDSMEFHESGLLRFKQVSDMGVIHPLYKSTVGGRRNENLVITGNNQPIVFQQGTTKLSVENNKTSITSDIMMQFFDPRTQNILFSTDYETHEFHLPSGVKSLNVQKASTERITSNATSDLNIKVDGRAIVRGNEGVFIMGKTIEFHMGGNMELKAENSIILNGSVMVSTTRLPSSSSGDQLGSGDWVRYKLCMCADGTLFKVQVTSQNMGCQISDNPCGNTH [G167M]	-1.61
MAAAAAAAAEQQSSNGPVKKSMREKAVERRSVNKEHNSNFKAGYIPIDEDRLHKTGLRGRKGNLAICVIILLFILAVINLIITLVIWAVIRIGPNGCDSMEFHESGLLRFKQVSDMGVIHPLYKSTVGGRRNENLVITGNNQPIVFQQGTTKLSVENNKTSITSDIYMQFFDPRTQNILFSTDYETHEFHLPSGVKSLNVQKASTERITSNATSDLNIKVDGRAIVRGNEGVFIMGKTIEFHMGGNMELKAENSIILNGSVMVSTTRLPSSSSGDQLGSGDWVRYKLCMCADGTLFKVQVTSQNMGCQISDNPCGNTH [G167Y]	-1.42
MAAAAAAAAEQQSSNGPVKKSMREKAVERRSVNKEHNSNFKAGYIPIDEDRLHKTGLRGRKGNLAICVIILLFILAVINLIITLVIWAVIRIGPNGCDSMEFHESGLLRFKQVSDMGVIHPLYKSTVGGRRNENLVITGNNQPIVFQQGTTKLSVENNKTSITSDIWMQFFDPRTQNILFSTDYETHEFHLPSGVKSLNVQKASTERITSNATSDLNIKVDGRAIVRGNEGVFIMGKTIEFHMGGNMELKAENSIILNGSVMVSTTRLPSSSSGDQLGSGDWVRYKLCMCADGTLFKVQVTSQNMGCQISDNPCGNTH [G167W]	-1.16
MAAAAAAAAEQQSSNGPVKKSMREKAVERRSVNKEHNSNFKAGYIPIDEDRLHKTGLRGRKGNLAICVIILLFILAVINLIITLVIWAVIRIGPNGCDSMEFHESGLLRFKQVSDMGVIHPLYKSTVGGRRNENLVITGNNQPIVFQQGTTKLSVENNKTSITSDITMQFFDPRTQNILFSTDYETHEFHLPSGVKSLNVQKASTERITSNATSDLNIKVDGRAIVRGNEGVFIMGKTIEFHMGGNMELKAENSIILNGSVMVSTTRLPSSSSGDQLGSGDWVRYKLCMCADGTLFKVQVTSQNMGCQISDNPCGNTH [G167T]	-1.32
MAAAAAAAAEQQSSNGPVKKSMREKAVERRSVNKEHNSNFKAGYIPIDEDRLHKTGLRGRKGNLAICVIILLFILAVINLIITLVIWAVIRIGPNGCDSMEFHESGLLRFKQVSDMGVIHPLYKSTVGGRRNENLVITGNNQPIVFQQGTTKLSVENNKTSITSDISMQFFDPRTQNILFSTDYETHEFHLPSGVKSLNVQKASTERITSNATSDLNIKVDGRAIVRGNEGVFIMGKTIEFHMGGNMELKAENSIILNGSVMVSTTRLPSSSSGDQLGSGDWVRYKLCMCADGTLFKVQVTSQNMGCQISDNPCGNTH [G167S]	-1.64
MAAAAAAAAEQQSSNGPVKKSMREKAVERRSVNKEHNSNFKAGYIPIDEDRLHKTGLRGRKGNLAICVIILLFILAVINLIITLVIWAVIRIGPNGCDSMEFHESGLLRFKQVSDMGVIHPLYKSTVGGRRNENLVITGNNQPIVFQQGTTKLSVENNKTSITSDIKMQFFDPRTQNILFSTDYETHEFHLPSGVKSLNVQKASTERITSNATSDLNIKVDGRAIVRGNEGVFIMGKTIEFHMGGNMELKAENSIILNGSVMVSTTRLPSSSSGDQLGSGDWVRYKLCMCADGTLFKVQVTSQNMGCQISDNPCGNTH [G167K]	-0.34
MAAAAAAAAEQQSSNGPVKKSMREKAVERRSVNKEHNSNFKAGYIPIDEDRLHKTGLRGRKGNLAICVIILLFILAVINLIITLVIWAVIRIGPNGCDSMEFHESGLLRFKQVSDMGVIHPLYKSTVGGRRNENLVITGNNQPIVFQQGTTKLSVENNKTSITSDIIMQFFDPRTQNILFSTDYETHEFHLPSGVKSLNVQKASTERITSNATSDLNIKVDGRAIVRGNEGVFIMGKTIEFHMGGNMELKAENSIILNGSVMVSTTRLPSSSSGDQLGSGDWVRYKLCMCADGTLFKVQVTSQNMGCQISDNPCGNTH [G167I]	-2.1
MAAAAAAAAEQQSSNGPVKKSMREKAVERRSVNKEHNSNFKAGYIPIDEDRLHKTGLRGRKGNLAICVIILLFILAVINLIITLVIWAVIRIGPNGCDSMEFHESGLLRFKQVSDMGVIHPLYKSTVGGRRNENLVITGNNQPIVFQQGTTKLSVENNKTSITSDIVMQFFDPRTQNILFSTDYETHEFHLPSGVKSLNVQKASTERITSNATSDLNIKVDGRAIVRGNEGVFIMGKTIEFHMGGNMELKAENSIILNGSVMVSTTRLPSSSSGDQLGSGDWVRYKLCMCADGTLFKVQVTSQNMGCQISDNPCGNTH [G167V]	-0.99
MAAAAAAAAEQQSSNGPVKKSMREKAVERRSVNKEHNSNFKAGYIPIDEDRLHKTGLRGRKGNLAICVIILLFILAVINLIITLVIWAVIRIGPNGCDSMEFHESGLLRFKQVSDMGVIHPLYKSTVGGRRNENLVITGNNQPIVFQQGTTKLSVENNKTSITSDIQMQFFDPRTQNILFSTDYETHEFHLPSGVKSLNVQKASTERITSNATSDLNIKVDGRAIVRGNEGVFIMGKTIEFHMGGNMELKAENSIILNGSVMVSTTRLPSSSSGDQLGSGDWVRYKLCMCADGTLFKVQVTSQNMGCQISDNPCGNTH [G167Q]	-0.39
